From paper PMC11995724

Molecular target: MiaA C273A (Shigella flexneri, UniProt P59197 1-316, C273A)
Test: EMSA (2% agarose); 10 mM Mg2+; 100 uM 10-F05; binding only slightly decreased, largely unaffected
Conditions: protein: recombinant; tags: N-terminal His-tag (pET28a); label: none (GelRed stain); predicted two hairpin loops

B1: tRNATrp_34-base (structured_RNA)
RNA: GUUCAAUUGGUAGAGCACCGGUCUCCAAAACCGG
  binding result: binds
